As usually defined, the Kd is the free concentration of one partner at which half of the binding sites on the other are occupied at equilibrium, for simple one-to-one binding. A higher Kd goes with lower affinity.

The record followed here is publication PMC3017643 (Journal of molecular biology, 2010).

Test [1] addresses full-length β-catenin (residues 1–781) (murine) (UniProt Q02248). Put plainly: ITC. (In general: Isothermal titration calorimetry measures the heat released or taken up as one component is titrated into another.)
For the next test, the target named is β-catenin 1-781 (UniProt Q02248). Put plainly: isothermal titration calorimetry. The following applies: reference: non-phosphorylated Lef-1(1–63); sites S40.
The target of test [2] is T1, full-length β-catenin (residues 1–781) (murine, UniProt Q02248 1-781).
T1 sequence (looked up): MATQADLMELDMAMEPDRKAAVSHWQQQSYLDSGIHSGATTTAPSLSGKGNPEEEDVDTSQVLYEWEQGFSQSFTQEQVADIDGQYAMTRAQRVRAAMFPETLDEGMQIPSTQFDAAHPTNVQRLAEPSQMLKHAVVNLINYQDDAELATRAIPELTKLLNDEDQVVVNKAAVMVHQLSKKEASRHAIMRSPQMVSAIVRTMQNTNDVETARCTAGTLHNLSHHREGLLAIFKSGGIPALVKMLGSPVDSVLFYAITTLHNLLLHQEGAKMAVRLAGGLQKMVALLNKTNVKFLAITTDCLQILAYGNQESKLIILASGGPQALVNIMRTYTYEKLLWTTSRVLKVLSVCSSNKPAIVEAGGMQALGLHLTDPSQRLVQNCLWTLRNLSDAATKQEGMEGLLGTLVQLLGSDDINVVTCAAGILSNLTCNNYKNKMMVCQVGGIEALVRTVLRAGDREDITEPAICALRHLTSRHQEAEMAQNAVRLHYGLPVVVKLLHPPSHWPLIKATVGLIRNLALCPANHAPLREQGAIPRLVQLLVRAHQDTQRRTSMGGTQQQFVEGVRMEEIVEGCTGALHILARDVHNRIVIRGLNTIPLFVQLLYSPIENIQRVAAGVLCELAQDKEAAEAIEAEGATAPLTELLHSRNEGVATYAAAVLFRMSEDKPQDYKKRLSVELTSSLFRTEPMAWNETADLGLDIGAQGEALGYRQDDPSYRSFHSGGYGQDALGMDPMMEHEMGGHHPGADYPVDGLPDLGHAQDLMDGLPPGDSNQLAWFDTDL
Put plainly: ITC.

For “CK2-phosphorylated murine Lef-1(1–63), HPLC-separated, as used for ITC (from UniProt P27782 1-63) (domain or fragment)”, in test [1], the Kd is 35 nM and the dH was -12.3 kcal/mol. In the case of “Lef-1 1-63 (from UniProt P27782) CK2-phosphorylated, HPLC-purified pLef-1(1–63)”, the KD result with β-catenin 1-781 was “same; reference 23 (± 3) × 10−9”. For “murine Lef-1(1–63), non-phosphorylated, as used for ITC (from UniProt P27782 1-63) (domain or fragment)”, in test [1], the dH was -13.1 kcal/mol.

B1: human TCF4 β-catenin binding region, residues 1–57 (domain or fragment, UniProt Q9NQB0 1-57, looked up)
chain: MPQLNGGGGDDLGANDELISFKDEGEQEEKSSENSSAERDLADVKSSLVNESETNQN
As for B1, in test [2], the Kd came to 16 nM and the dH is -12.5 ± 0.1 kcal/mol.
